First the molecules themselves.
B1: miniprotein 94 (designed binder)
chain: PCVWTGFREFKGGQRGKERLAMCEDLMCEADWWGGNQNRDRGSIFTRVKGSGALGKISIAERGARNNAV
notes: de novo designed miniprotein of three helices and 69 amino acids; scaffold from residues 164-232 of 14-3-3, all 69 residues allowed to mutate; Cloned into pMAL-c5x with C-terminal Myc tag; source: E. coli BL21(DE3), purified (MBPTrap HP column); not shown: MBP, N-terminal, kept; Myc, C-terminal, kept
B2: miniprotein 63 (designed binder)
chain: SIVGQGAQQMLVSKIKCTVANEWLDRSMLTSKFAMFVLLNEIDMLDIMLEAMGISLLEDREHQTRRVNY
notes: de novo designed miniprotein of three helices and 69 amino acids; scaffold from residues 164-232 of 14-3-3, all 69 residues allowed to mutate; Cloned into pMAL-c5x (NdeI, EcoRI) with C-terminal Myc tag; source: E. coli BL21(DE3), purified (MBPTrap HP column); not shown: MBP, N-terminal, kept; Myc, C-terminal, kept
B3: miniprotein 76 (designed binder)
chain: B2 chain with V3Q, Q8R, M10C, I15L, S27W, L56I, L57E
notes: as for B2

Residue numbers refer to the chain shown, from its start.

The target in the assay is T1, V600E mutant BRAF^15mut (BRAF kinase domain with 15 solubilizing mutations and V600E) (UniProt P15056 444-723, I543A | I544S | I551K | Q562R | L588N | K630S | Y673S | A688R | L706S | Q709R | …).
T1 construct: BRAF kinase domain, residues 444-723 of UniProt P15056, with 15 solubilizing mutations (Phe667 kept intact) and V600E; Cloned into pET-32a (NdeI, XhoI) with N-terminal MBP; also called VRAF murine sarcoma viral oncogene homologue B1 kinase domain; source: E. coli BL21(DE3), purified (MBPTrap HP column)
T1 sequence (P15056 other isoform, or with tags, fused parts or gaps with the stated changes): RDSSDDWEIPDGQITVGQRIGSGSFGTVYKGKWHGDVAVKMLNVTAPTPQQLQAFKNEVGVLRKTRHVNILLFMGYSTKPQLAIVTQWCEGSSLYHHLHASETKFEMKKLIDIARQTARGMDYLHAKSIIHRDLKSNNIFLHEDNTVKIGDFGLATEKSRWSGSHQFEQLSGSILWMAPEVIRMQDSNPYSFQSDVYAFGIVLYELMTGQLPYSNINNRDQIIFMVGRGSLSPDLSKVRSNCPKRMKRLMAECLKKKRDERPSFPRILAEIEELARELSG
The experiment in a line: ELISA; 10 ug/mL V600E mutant BRAF^15mut coated in a 96-well plate; blocked with 5% skim milk in 20 mM Tris-HCl pH 7.5, 150 mM NaCl; purified Myc-tagged proteins (MEK1, MBP, miniproteins) added at 0, 200 and 2000 nM; detected with anti-c-Myc antibody and HRP-conjugated anti-mouse IgG, TMB, absorbance at 450 nm; triplicate. As to conditions: both partners purified.
Consider B1, for which the binding result is recorded as “binds”.

B2: the binding result is recorded as “binds”.

B3: the binding result is listed as “binds”.

These data come from publication PMC11122373, “Structure-Based De Novo Design for the Discovery of Miniprotein Inhibitors Targeting Oncogenic Mutant BRAF” (International Journal of Molecular Sciences, 2024).
